B1: nwTCR-2169 (TCR, V domains shown)
V domain 1: SQQGEEDPQALSIQEGENATMNCSYKTSINNLQWYRQNSGRGLVHLILIRSNEREKHSGRLRVTLDTSKKSSSLLITASRAADTASYFCATLTLNDYKLSFGAGTTVTVRA
V domain 2: EAQVTQNPRYLITVTGKKLTVTCSQNMNHEYMSWYRQDPGLGLRQIYYSMNVEVTDKGDVPEGYKVSRKEKRNFPLILESPSPNQTSLYFCATQWASGSTDTQYFGPGTRLTVLE
notes: TCR on T cells
B2: nwTCR-2006 (TCR, V domains shown)
V domain 1: AQSVTQLDSHVSVSEGTPVLLRCNYSSSYSPSLFWYVQHPNKGLQLLLKYTSAATLVKGINGFEAEFKKSETSFHLTKPSAHMSDAAEYFCVVSITGFQKLVFGTGTRLLVSP
V domain 2: GAVVSQHPSRVICKSGTSVKIECRSLDFQATTMFWYRQFPKQSLMLMATSNEGSKATYEQGVEKDKFLINHASLTLSTLTVTSAHPEDSSFYICSATEDNEKLFFGSGTQLSVLE
notes: TCR on T cells
B3: nwTCR-2159 (TCR, V domains shown)
V domain 1: QQPVQSPQAVILREGEDAVINCSSSKALYSVHWYRQKHGEAPVFLMILLKGGEQKGHDKISASFNEKKQQSSLYLTASQLSYSGTYFCGTESGRGSTLGRLYFGRGTQLTVWP
V domain 2: DSGVTQTPKHLITATGQRVTLRCSPRSGDLSVYWYQQSLDQGLQFLIQYYNGEERAKGNILERFSAQQFPDLHSELNLSSLELGDSALYFCASSPWTSGSYEQYFGPGTRLTVTE
notes: TCR on T cells
B4: nwTCR-2157 (TCR, V domains shown)
V domain 1: QKEVEQNSGPLSVPEGAIASLNCTYSDRGSQSFFWYRQYSGKSPELIMFIYSNGDKEDGRFTAQLNKASQYVSLLIRDSQPSDSATYLCAVPGGTSYGKLTFGQGTILTVHP
V domain 2: DTAVSQTPKYLVTQMGNDKSIKCEQNLGHDTMYWYKQDSKKFLKIMFSYNNKELIINETVPNRFSPKSPDKAHLNLHINSLELGDSAVYFCASSQGISGNTIYFGEGSWLTVVE
notes: TCR on T cells
B5: nwTCR-3274 (TCR, V domains shown)
V domain 1: QKEVEQNSGPLSVPEGAIASLNCTYSDRGSQSFFWYRQYSGKSPELIMSIYSNGDKEDGRFTAQLNKASQYVSLLIRDSQPSDSATYLCAVVSGGYNKLIFGAGTRLAVHP
V domain 2: EPEVTQTPSHQVTQMGQEVILRCVPISNHLYFYWYRQILGQKVEFLVSFYNNEISEKSEIFDDQFSVERPDGSNFTLKIRSTKLEDSAMYFCASSEGWGGTEAFFGQGTRLTVVE
notes: TCR on T cells
B6: nwTCR-3173 (TCR, V domains shown)
V domain 1: SQQGEEDPQALSIQEGENATMNCSYKTSINNLQWYRQNSGRGLVHLILIRSNEREKHSGRLRVTLDTSKKSSSLLITASRAADTASYFCATYANDYKLSFGAGTTVTVRA
V domain 2: EAQVTQNPRYLITVTGKKLTVTCSQNMNHEYMSWYRQDPGLGLRQIYYSMNVEVTDKGDVPEGYKVSRKEKRNFPLILESPSPNQTSLYFCASSAGTGGFVGYTFGSGTRLTVVE
notes: TCR on T cells
B7: nwTCR-3273 (TCR, V domains shown)
V domain 1: SQELEQSPQSLIVQEGKNLTINCTSSKTLYGLYWYKQKYGEGLIFLMMLQKGGEEKSHEKITAKLDEKKQQSSLHITASQPSHAGIYLCGAVPINDYKLSFGAGTTVTVRA
V domain 2: EAQVTQNPRYLITVTGKKLTVTCSQNMNHEYMSWYRQDPGLGLRQIYYSMNVEVTDKGDVPEGYKVSRKEKRNFPLILESPSPNQTSLYFCASSIDSGSSYNEQFFGPGTRLTVLE
notes: TCR on T cells
B8: nwTCR-3271 (TCR, V domains shown)
V domain 1: DQQVKQNSPSLSVQEGRISILNCDYTNSMFDYFLWYKKYPAEGPTFLISISSIKDKNEDGRFTVFLNKSAKHLSLHIVPSQPGDSAVYFCAAKPDKLIFGTGTRLQVFP
V domain 2: SAVISQKPSRDICQRGTSLTIQCQVDSQVTMMFWYRQQPGQSLTLIATANQGSEATYESGFVIDKFPISRPNLTFSTLTVSNMSPEDSSIYLCSVWGAGLAIYNEQFFGPGTRLTVLE
notes: TCR on T cells
B9: nwTCR-1954 (TCR, V domains shown)
V domain 1: QKEVEQNSGPLSVPEGAIASLNCTYSDRGSQSFFWYRQYSGKSPELIMSIYSNGDKEDGRFTAQLNKASQYVSLLIRDSQPSDSATYLCAVLRSNDYKLSFGAGTTVTVRA
V domain 2: EAQVTQNPRYLITVTGKKLTVTCSQNMNHEYMSWYRQDPGLGLRQIYYSMNVEVTDKGDVPEGYKVSRKEKRNFPLILESPSPNQTSLYFCASSPGTSGNEQFFGPGTRLTVLE
notes: TCR on T cells
B10: nwTCR-3272 (TCR, V domains shown)
V domain 1: QKEVEQNSGPLSVPEGAIASLNCTYSDRGSQSFFWYRQYSGKSPELIMSIYSNGDKEDGRFTAQLNKASQYVSLLIRDSQPSDSATYLCAVPSGNMLTFGGGTRLMVKP
V domain 2: DVKVTQSSRYLVKRTGEKVFLECVQDMDHENMFWYRQDPGLGLRLIYFSYDVKMKEKGDIPEGYSVSREKKERFSLILESASTNQTSMYLCASSSATSGSGEQYFGPGTRLTVTE
notes: TCR on T cells

These binders were tested against T1, labeled peptide-MHC (HLA-A*02:01) tetramer (…-HLA-A*02:01 tetramer) (human) (assay: pMHC tetramer staining of edited CD8+ T cells, flow cytometry).
T1 construct: Labeled tetramer used for flow cytometry staining; also called pMHC; pMHC tetramer
B1: binds.
B2: binds.
B3: binds.
B4: binds.

These binders were tested against T1, labeled peptide-MHC (HLA-A*02:01) … (assay: tetramer staining of sorted T cell clones, flow cytometry).
B5: binds.
B6: binds.
B7: binds.
B8: binds.
B9: binds.
B10: binds.

From EP4682162A1 (Neowise Biotechnology Co., Ltd., dated 2026)
